Among the data in publication doi:10.1101/2024.12.07.627365 (bioRxiv, 2024) are Kd, koff and kon values, retold here.

As a reminder, the Kd is the concentration at which binding is half-saturated. High values mean lower affinity, low ones higher affinity. By koff is commonly meant a measure of how fast the partners let go of each other. For orientation: kon means the rate constant with which the complex forms. Low readings indicate slower complex formation, high ones faster complex formation.

The test concerns the target T1, Extended FH2 FMN1 (UniProt Q05860 961-1466).
T1 sequence (looked up): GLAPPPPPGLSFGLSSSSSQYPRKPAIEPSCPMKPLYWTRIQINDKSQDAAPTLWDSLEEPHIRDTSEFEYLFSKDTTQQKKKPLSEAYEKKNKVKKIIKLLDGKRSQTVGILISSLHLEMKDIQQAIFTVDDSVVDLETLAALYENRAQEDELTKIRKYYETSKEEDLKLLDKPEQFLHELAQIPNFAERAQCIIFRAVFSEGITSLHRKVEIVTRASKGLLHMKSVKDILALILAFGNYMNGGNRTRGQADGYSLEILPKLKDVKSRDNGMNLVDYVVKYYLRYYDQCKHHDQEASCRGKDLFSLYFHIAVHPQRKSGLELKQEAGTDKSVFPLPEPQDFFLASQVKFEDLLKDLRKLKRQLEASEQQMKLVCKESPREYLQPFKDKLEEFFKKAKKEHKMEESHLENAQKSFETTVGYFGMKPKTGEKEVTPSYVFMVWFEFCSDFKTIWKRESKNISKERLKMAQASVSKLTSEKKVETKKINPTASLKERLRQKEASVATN
Put plainly: SPR.

B1: N-terminal WW1-WW2 FNBP4 (domain or fragment, UniProt Q8N3X1 214-629, looked up)
chain: GIEMGDWQEVWDENTGCYYYWNTQTNEVTWELPQYLATQVQGLQHYQPSSVPGAETSFVVNTDIYSKEKTISVSSSKSGPVIAKREVKKEVNEGIQALSNSEEEKKGVAASLLAPLLPEGIKEEEERWRRKVICKEEPVSEVKETSTTVEEATTIVKPQEIMLDNIEDPSQEDLCSVVQSGESEEEEEQDTLELELVLERKKAELRALEEGDGSVSGSSPRSDISQPASQDGMRRLMSKRGKWKMFVRATSPESTSRSSSKTGRDTPENGETAIGAENSEKIDENSDKEMEVEESPEKIKVQTTPKVEEEQDLKFQIGELANTLTSKFEFLGINRQSISNFHVLLLQTETRIADWREGALNGNYLKRKLQDAAEQLKQYEINATPKGWSCHWDRDHRRYFYVNEQSGESQWEFPDG
B1 yielded a Kd of 36.5 nM, a koff of 0.000803 s⁻¹ and a kon of 22500 M⁻¹ s⁻¹.
